Source: patent US20220267376A1, “P53 ACTIVATOR PEPTIDOMIMETIC MACROCYCLES” (Merck Sharp & Dohme Corp., priority 2019, published 2022)
Each block holds one molecule with its values, some of them ahead of it. Positions of bridges follow the written chain, without caps; N, C: chain ends. Non-standard residues stand in square brackets, D forms with d. Residues, ends and D or L forms follow the SMILES beside them. No end group written: not given here. dPhe(4-CF3) = N[C@H](Cc1ccc(C(F)(F)F)cc1)C(=O)O; dTrp(6-F) = N[C@H](Cc1c[nH]c2cc(F)ccc12)C(=O)O; R8 = C=CCCCCCC[C@@](C)(N)C(=O)O; S8 = C=CCCCCCC[C@](C)(N)C(=O)O; R5 = C=CCCC[C@@](C)(N)C(=O)O; S5 = C=CCCC[C@](C)(N)C(=O)O

What was measured:
[1] = Circular dichroism (CD) helicity of peptide in solution; assay type: physicochemical; conditions: 25° C.
Protocol: Prior to the experiment, 5 μl of the 10 mM stock peptide was mixed with 45 μl of 100% methanol, and dried for 2 hours in the SpeedVac concentrator (Thermo Scientific). The dried peptide was reconstituted in buffer, containing 1 mM HEPES pH 7.4 and 5% methanol, to a concentration of 1 mM. The peptide sample was placed in a quartz cuvette with a path length of 0.2 cm and the CD spectrum was recorded from 300 to 190 nm at 25° C., using the Chirascan-plus qCD machine (Applied Photophysics). […] An estimate of the secondary stmcture components of the peptide was carried out by converting the CD spectrum to mean residue ellipticity, before deconvoluting using the CDNN software (distributed by Applied Photophysics). All experiments were done in duplicates.

[2] = molecular target: T1, MDM2 (Homo sapiens, UniProt Q00987); assay: MDM2 binding assay, fluorescence polarization (FP) competition
T1 construct: GST (N); His6 (N); made in house; host or cells: E. coli BL21 (DE3) Rosetta T1R
Protocol: [P] is the protein concentration (MDM2), [L] is the labeled peptide concentration, r is the anisotropy measured, r0 is the anisotropy of the free peptide, rb is the anisotropy of the MDM2-FAM-labeled peptide complex, Kd is the dissociation constant, [L]t is the total FAM labeled peptide concentration, and [P]t is the total MDM2 concentration. […] The competing molecules were then titrated against the complex of the FAM-labeled peptide and protein. Apparent Kd values were determined by fitting the experimental data to the equations shown below:
[L]st and [L]t denote labeled ligand and total unlabeled ligand input concentrations, respectively. Kd2 is the dissociation constant of the interaction between the unlabeled ligand and the protein. In all competition experiments, it is assumed that [P]t>[L]st, otherwise considerable amounts of free labeled ligand would always be present and would interfere with measurements. […] The FAM-labeled peptide was dissolved in dimethyl sulfoxide (DMSO) at 1 mM and diluted into experimental buffer. Readings were carried out with an Envision Multilabel Reader (PerkinElmer). […] All titrations were carried out in triplicate. […] Negative control titrations of the ligands under investigation were also carried out with the fluorescently labeled peptide (in the absence of MDM2) to ensure no interactions were occurring between the ligands and the FAM-labeled peptide.

[3] = molecular target: T2, MDM4 (Homo sapiens, UniProt O15151); assay: Fluorescence polarization (FP) binding to MDM4/MDMX
T2 construct: GST; made in house
T2 sequence (O15151 1-490): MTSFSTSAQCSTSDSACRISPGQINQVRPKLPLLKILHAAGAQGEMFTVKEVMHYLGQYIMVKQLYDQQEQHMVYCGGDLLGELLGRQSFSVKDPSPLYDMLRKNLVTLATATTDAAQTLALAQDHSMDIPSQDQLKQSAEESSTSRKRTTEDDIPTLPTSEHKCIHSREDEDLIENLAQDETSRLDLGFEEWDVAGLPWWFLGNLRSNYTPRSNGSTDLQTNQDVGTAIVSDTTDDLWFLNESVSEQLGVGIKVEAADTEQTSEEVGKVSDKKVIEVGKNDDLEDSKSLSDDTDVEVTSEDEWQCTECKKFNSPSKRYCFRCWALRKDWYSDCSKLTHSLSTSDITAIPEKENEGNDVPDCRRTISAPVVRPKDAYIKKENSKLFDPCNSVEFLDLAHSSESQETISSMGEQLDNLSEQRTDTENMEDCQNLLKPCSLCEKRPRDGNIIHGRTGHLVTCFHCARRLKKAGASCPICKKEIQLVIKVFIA

[4] = molecular target: T1, MDM2; assay: Surface plasmon resonance (SPR) binding to MDM2; conditions: for Kd: MDM2
Protocol: SPR experiments were performed with Biacore T100 (GE Healthcare) at 25° C. […] SPR buffer consisted of PBS pH 7.2, 1 mM DTT, 0.01% Tween 20, and 3% DMSO. The CMS chip was first conditioned with 100 mM HCl, followed by 0.1% SIDS, 50 mM NaOH and then water, all performed twice with 6 second injection at a flow rate of 100 μL/min. With the flow rate set to 10 μL/minutes, streptavidin (S4762. Sigma-Aldrich) was immobilized on the conditioned chip through amine coupling as described in the Biacore manual. Excess protein was removed by 30 second injection of the wash solution (50 mM NaOH+1M NaCl) for at least 8 times. The immobilized levels are 3400-3700 RU. The biotinylated MDM2 were captured to the streptavidin, to a level of ˜400 RU for MDM2. Flow cell consisted of only streptavidin was used as the reference surface. Using a flow rate of 30 μL/minutes, peptides dissolved in the SPR buffer are injected for 180 sec. The dissociation was monitored for 300 seconds. […] For single-cycle kinetics, five peptide concentrations were injected consecutively for 180 seconds, followed by a 4000 second dissociation. Similar injection of SPR buffer was followed to allow the surface to be regenerated, though not completely. After the run, responses from the target protein surface are transformed by (i) correcting with DMSO calibration curve, (ii) subtracting the responses obtained from the reference surface, and (iii) subtracting the responses of buffer injections from those of peptide injections. The last step is known as double referencing which corrects the systematic artefacts. The resulting responses were subjected to kinetic analysis by global fitting with 1:1 binding model.

[5] = test system: HCT116 p53 reporter cells; assay: p53 beta-lactamase reporter gene assay; assay type: cell-based; conditions: 16 hours, up to 50 μM
Protocol: The cells were incubated overnight and followed by removal of cell growth media and replaced with Opti-MEM either containing 0% FBS or 10% FBS. […] Measurements were done using Envision multiplate reader (Perkin-Elmer).

[6] = test system: Jump-In™ T-REx™ CHO-K1 BLA cells; assay: Tetracycline beta-lactamase reporter gene assay (counterscreen); assay type: cell-based; conditions: read-out: Counterscreen EC50 (μM) (2% FBS) 16 H; 2% FBS, 16 H
Protocol: Cells were seeded into a 384-well plate a density of 4000 cells per well. […] Measurements were carried out using Envision multiplate reader (Perkin-Elmer).

[7] = molecular target: T3, human MDM2 protein (amino acids 1-125) (Homo sapiens, UniProt Q00987); assay: cell-based or functional assay
[8] = molecular target: T3, human MDM2 protein (amino acids 1-125); assay: fluorescence polarization competition, MDM2
[9] = molecular target: T3, human MDM2 protein (amino acids 1-125); assay: SPR, biotinylated MDM2 on streptavidin, peptide as analyte
[10] = molecular target: T3, human MDM2 protein (amino acids 1-125); assay: fluorescence polarization competition, FAM-12/1 tracer, MDM2
[11] = molecular target: T3, human MDM2 protein (amino acids 1-125); assay: fluorescence anisotropy competition: unlabeled peptide titrated against the complex of MDM2 (250 nM) and FAM-labeled 12/1 peptide (50 nM)
[12] = molecular target: MDM4 protein (human) (UniProt O15151); assay: fluorescence polarization assay on MDM4 (anisotropy falls with the peptide concentration; the labeled tracer used with MDM4 is not given)

T1 sequence (Q00987 1-125): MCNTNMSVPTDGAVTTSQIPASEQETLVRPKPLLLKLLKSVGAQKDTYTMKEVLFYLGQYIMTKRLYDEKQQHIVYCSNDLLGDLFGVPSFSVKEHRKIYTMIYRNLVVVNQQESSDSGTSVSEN
T3 sequence (Q00987 1-125 limits assumed): as the sequence (Q00987 1-125) above

Molecule: CC(C)C[C@@H](NC(=O)[C@@H](CC(C)C)NC(=O)[C@@H](CCCCN)NC(=O)[C@@H](CCC(=O)O)NC(=O)[C@@H](Cc1ccc(C(F)(F)F)cc1)NC(=O)[C@@]1(C)CCC/C=C\CCC[C@@](C)(NC(=O)[C@H](N)[C@H](C)O)C(=O)N[C@H](Cc2c[nH]c3cc(F)ccc23)C(=O)N[C@H](Cc2ccc(O)cc2)C(=O)N[C@H](C)C(=O)N1)C(=O)N[C@H](CCCNC(=N)N)C(N)=O [^DPMI-δ (2-6)] (H-[dT][R5][dTrp(6-F)][dY][dA][R5][dPhe(4-CF3)][dE][dK][dL][dL][dR]-NH2; staple (Z) 2-6)
CD (% helicity) [1]: 46.7%
binding to MDM2 in FP assay [2]: no binding
binding to MDMX in FP assay [3]: no binding
binding to MDM2 in SPR [4]: non-binder
Kd ([4]; Table 1): > 500 nM
Kd ([4]; Table 2): > 500 nM
p53 activation in reporter cells [5]: unable to activate cellular p53
EC50 [6]: 13.9 µM

B1: ^DPMI-δ(1-5) (peptide)
peptide: XAXYXNXEKLLR
modifications: all alpha-amino acids have a D configuration; Xaa1 is R5 and Xaa5 is R5 ((R)-2-(4'-pentenyl)-alanine), joined by a hydrocarbon staple; Xaa3 is 6-F-Trp; Xaa7 is p-CF3-Phe; Xaa12 optionally has a C-terminal amide; Xaa1 optionally has a N-terminal acyl
P53 activity EC50 (µM) (2% FBS) 16 H [7]: 13.7 µM
cellular activation of p53, EC50 (HCT116 p53 reporter cells) [7]: 17500 nM
Kd [9]: < 1 nM
IC50 (read off the curve) [11]: 500 nM
IC50 (read off the curve) [12]: 600 nM

B2: ^DPMI-δ(1,5,12) (peptide)
peptide: XAXYXNXEKLLX
modifications: all alpha-amino acids have a D configuration; Xaa1 is R5 ((R)-2-(4'-pentenyl)-alanine), Xaa5 is B5 (2,2-(4'-pentenyl)-glycine), Xaa12 is R8 ((R)-2-(7'-octenyl)-alanine), joined by a hydrocarbon stitch 1-5 and 5-12 with residue 5 in common; Xaa3 is 6-F-Trp; Xaa7 is p-CF3-Phe; Xaa12 optionally has a C-terminal amide; Xaa1 optionally has a N-terminal acyl
P53 activity EC50 (µM) (2% FBS) 16 H [7]: 4 µM
fold increase in affinity as compared to ^DPMI-δ(1-5) and ^DPMI-δ(5-12) [8]: 10 to 100 fold
Kd [9]: < 1 nM
Kd [10]: 4.25 nM
IC50 (read off the curve) [11]: 200 nM
IC50 (read off the curve) [12]: 1000 nM

Results, then the molecule that gave them:

P53 activity EC50 (µM) (2% FBS) 16 H [7]: > 50 µM
Molecule: [dT][S8][dTrp(6-F)][dY][dA][dN][dPhe(4-CF3)][dE][R5][dL][dL][dR]-NH2 (staple 2-9) [^DPMI-δ(2-9)]

P53 activity EC50 (µM) (2% FBS) 16 H [7]: 34.6 µM
fold increase in affinity as compared to ^DPMI-δ(1-5) and ^DPMI-δ(5-12) [8]: 10 to 100 fold
Kd [9]: < 1 nM
Kd [10]: 0.7 nM
IC50 (read off the curve) [11]: 200 nM
IC50 (read off the curve) [12]: 2000 nM
Molecule: [R5][dA][dTrp(6-F)][dY][R5][dN][dPhe(4-CF3)][dE][S5][dL][dL][R8]-NH2 (staple 1-5, 9-12) [^DPMI-δ(1-5,9-12)]

P53 activity EC50 (µM) (2% FBS) 16 H [7]: > 50 µM
Kd [9]: > 500 nM
Kd [10]: > 10000 nM
Molecule: [dT][R5][dTrp(6-F)][dY][dA][R5][dPhe(4-CF3)][dE][dK][dL][dL][dR]-NH2 (staple 2-6) [^DPMI-δ(2-6)]
